Results as given in the supplement of paper PMC10567573.

B1: SETD8 (parent)
chain: FVVEYHGDLIEITDAKKREALYAQ
B2: TRIM35 (parent)
chain: WEVQVSPTCPVCKDRASPADLRTN

Variants of: B1
Test: protein stability index of a GFP-peptide fusion (GPS, HEK-293T) (PSI 1-6); higher = more stable
Details: c terminus: a fixed tail appended
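Also: lentivirally expressed fusions sorted by FACS into six bins by GFP to DsRed ratio, PSI derived from sequencing read proportions per bin multiplied by bin number.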

| Variant | protein stability index |
| --- | --- |
| FVCEYHGDLIEITDAKKREALYAQ | 2.24 |
| FVAEYHGDLIEITDAKKREALYAQ | 1.81 |
| LVVEYHGDLIEITDAKKREALYAQ | 1.85 |
| YVVEYHGDLIEITDAKKREALYAQ | 2.62 |
| SVVEYHGDLIEITDAKKREALYAQ | 4.43 |
| QVVEYHGDLIEITDAKKREALYAQ | 4.63 |
| HVVEYHGDLIEITDAKKREALYAQ | 4.35 |
| PVVEYHGDLIEITDAKKREALYAQ | 4.46 |
| AVVEYHGDLIEITDAKKREALYAQ | 4.23 |
| TVVEYHGDLIEITDAKKREALYAQ | 4.14 |
| CVVEYHGDLIEITDAKKREALYAQ | 3.3 |
| NVVEYHGDLIEITDAKKREALYAQ | 4.78 |
| EVVEYHGDLIEITDAKKREALYAQ | 4.75 |
| KVVEYHGDLIEITDAKKREALYAQ | 3.65 |
| IVVEYHGDLIEITDAKKREALYAQ | 2.37 |
| GVVEYHGDLIEITDAKKREALYAQ | 4.8 |
| RVVEYHGDLIEITDAKKREALYAQ | 3.74 |
| MVVEYHGDLIEITDAKKREALYAQ | 2.71 |
| DVVEYHGDLIEITDAKKREALYAQ | 4.46 |
| VVVEYHGDLIEITDAKKREALYAQ | 2.5 |

| Variant | protein stability index |
| --- | --- |
| FTVEYHGDLIEITDAKKREALYAQ | 2.38 |
| FGVEYHGDLIEITDAKKREALYAQ | 3.95 |
| FPVEYHGDLIEITDAKKREALYAQ | 4.09 |
| FWVEYHGDLIEITDAKKREALYAQ | 1.32 |
| FHVEYHGDLIEITDAKKREALYAQ | 3.65 |
| FQVEYHGDLIEITDAKKREALYAQ | 3.12 |
| FEVEYHGDLIEITDAKKREALYAQ | 3.73 |
| FRVEYHGDLIEITDAKKREALYAQ | 3.02 |
| FAVEYHGDLIEITDAKKREALYAQ | 3.83 |
| FSVEYHGDLIEITDAKKREALYAQ | 2.97 |
| FIVEYHGDLIEITDAKKREALYAQ | 1.83 |
| FDVEYHGDLIEITDAKKREALYAQ | 4.2 |
| FKVEYHGDLIEITDAKKREALYAQ | 3.6 |
| FFVEYHGDLIEITDAKKREALYAQ | 2.19 |
| FLVEYHGDLIEITDAKKREALYAQ | 2.13 |
| FMVEYHGDLIEITDAKKREALYAQ | 2.49 |
| FNVEYHGDLIEITDAKKREALYAQ | 3.64 |
| FCVEYHGDLIEITDAKKREALYAQ | 3.25 |
| FYVEYHGDLIEITDAKKREALYAQ | 1.66 |

Variants of: B2
Test: as above
Details: c terminus: a fixed tail appended

| Variant | protein stability index |
| --- | --- |
| WEVQVSPTCPVCKDRASPADLRTF | 1.55 |
| WEVQVSPTCPVCKDRASPADLRTD | 3.14 |
| WEVQVSPTCPVCKDRASPADLRTA | 2.29 |
| WEVQVSPTCPVCKDRASPADLRTE | 2.29 |
| WEVQVSPTCPVCKDRASPADLRTK | 3.12 |
| WEVQVSPTCPVCKDRASPADLRTR | 2.74 |
| WEVQVSPTCPVCKDRASPADLRTQ | 2.81 |
| WEVQVSPTCPVCKDRASPADLRTI | 1.7 |
| WEVQVSPTCPVCKDRASPADLRTM | 1.55 |
| WEVQVSPTCPVCKDRASPADLRTL | 1.71 |
| WEVQVSPTCPVCKDRASPADLRTY | 1.6 |
| WEVQVSPTCPVCKDRASPADLRTP | 2.47 |
| WEVQVSPTCPVCKDRASPADLRTH | 1.42 |
| WEVQVSPTCPVCKDRASPADLRTC | 2.43 |
| WEVQVSPTCPVCKDRASPADLRTV | 1.19 |
| WEVQVSPTCPVCKDRASPADLRTS | 2.57 |
| WEVQVSPTCPVCKDYASPADLRTN | 2.34 |
| WEVQVSPTCPVCKDWASPADLRTN | 2.53 |
| WEVQVSPTCPVCKDRASKADLRTN | 2.52 |
| WEVQVSPTCPVCKDRASWADLRTN | 1.39 |
| WEVQVSPTCPVCKDRASVADLRTN | 2.57 |
| WEVQVSPTCPVCKDRASSADLRTN | 2.51 |
| WEVQVSPTCPVCKDRASGADLRTN | 2.51 |
| WEVQVSPTCPVCKDRASIADLRTN | 2.87 |
| WEVQVSPTCPVCKDRASFADLRTN | 1.95 |

| Variant | protein stability index |
| --- | --- |
| WEVQVSPTCPVCKDRASRADLRTN | 3.2 |
| WEVQVSPTCPVCKDRASTADLRTN | 2.57 |
| WEVQVSPTCPVCKDRASQADLRTN | 2.13 |
| WEVQVSPTCPVCKDRASHADLRTN | 1.6 |
| WEVQVSPTCPVCKDRASDADLRTN | 1.99 |
| WEVQVSPTCPVCKDRASAADLRTN | 2.04 |
| WEVQVSPTCPVCKDRASNADLRTN | 2.39 |
| WEVQVSPTCPVCKDRASYADLRTN | 2.15 |
| WEVQVSPTCPVCKDRASMADLRTN | 1.99 |
| WEVQVSPTCPVCKDRASPADLRFN | 1.82 |
| WEVQVSPTCPVCKDRASPADLRWN | 2.02 |
| WEVQVSPTCPVCKDRASPADLRHN | 2.93 |
| WEVQVSPTCPVCKDRASPADLRSN | 2.26 |
| WEVQVSPTCPVCKDRASPADLRMN | 2.5 |
| WEVQVSPTCPVCKDRASPADLRPN | 2.08 |
| WEVQVSPTCPVCKDRASPADLRVN | 2.06 |
| WEVQVSPTCPVCKDRASPADLRQN | 2.58 |
| WEVQVSPTCPVCKDRASPADLRAN | 2.28 |
| WEVQVSPTCPVCKDRASPADLRDN | 3.45 |
| WEVQVSPTCPVCKDRASPADLRNN | 2.74 |
| WEVQVSPTCPVCKDRASPADLRIN | 2.18 |
| WEVQVSPTCPVCKDRASPADLREN | 2.83 |
| WEVQVSPTCPVCKDRASPADLRLN | 3.09 |
| WEVQVSPTCPVCKDRASPADLRYN | 1.73 |
| WEVQVSPTCPVCKDRASPADLRKN | 3.12 |

| Variant | protein stability index |
| --- | --- |
| WEVQVSPTCPVCKDRASPADLRCN | 2.13 |
| WEVQVSPTCPVCKDRAMPADLRTN | 2.01 |
| WEVQVSPTCPVCKDRAHPADLRTN | 2.08 |
| WEVQVSPTCPVCKDRAQPADLRTN | 2.84 |
| WEVQVSPTCPVCKDRAVPADLRTN | 2.23 |
| WEVQVSPTCPVCKDRAPPADLRTN | 2.83 |
| WEVQVSPTCPVCKDRALPADLRTN | 2.75 |
| WEVQVSPTCPVCKDRANPADLRTN | 2.51 |
| WEVQVSPTCPVCKDRATPADLRTN | 2.05 |
| WEVQVSPTCPVCKDRAYPADLRTN | 4.01 |
| WEVQVSPTCPVCKDRACPADLRTN | 1.81 |
| WEVQVSPTCPVCKDRAEPADLRTN | 3.89 |
| WEVQVSPTCPVCKDRAFPADLRTN | 2.19 |
| WEVQVSPTCPVCKDRAWPADLRTN | 3.4 |
| WEVQVSPTCPVCKDRAAPADLRTN | 2.48 |
| WEVQVSPTCPVCKDRADPADLRTN | 3.31 |
| WEVQVSPTCPVCKDRAIPADLRTN | 2.66 |
| WEVQVSPTCPVCKDRASPADMRTN | 2.13 |
| WEVQVSPTCPVCKDRASPADWRTN | 2.62 |
| WEVQVSPTCPVCKDRASPADNRTN | 3.21 |
| WEVQVSPTCPVCKDRASPADQRTN | 2.5 |
| WEVQVSPTCPVCKDRASPADGRTN | 2.04 |
| WEVQVSPTCPVCKDRASPADCRTN | 3.26 |
| WEVQVSPTCPVCKDRASPADRRTN | 2.37 |
| WEVQVSPTCPVCKDRASPADFRTN | 2 |

| Variant | protein stability index |
| --- | --- |
| WEVQVSPTCPVCKDRASPADYRTN | 2.57 |
| WEVQVSPTCPVCKDRASPADARTN | 3.04 |
| WEVQVSPTCPVCKDRASPADVRTN | 3.33 |
| WEVQVSPTCPVCKDRASPADERTN | 2.98 |
| WEVQVSPTCPVCKDRASPADIRTN | 2.59 |
| WEVQVSPTCPVCKDRASPADHRTN | 2.54 |
| WEVQVSPTCPVCKDRASPADKRTN | 3.15 |
| WEVQVSPTCPVCKDRASPADTRTN | 2.62 |
| WEVQVSPTCPVCKDRASPADSRTN | 2.58 |
| WEVQVSPTCPVCKDRHSPADLRTN | 2.71 |
| WEVQVSPTCPVCKDRSSPADLRTN | 2.42 |
| WEVQVSPTCPVCKDRFSPADLRTN | 1.91 |
| WEVQVSPTCPVCKDRPSPADLRTN | 2.29 |
| WEVQVSPTCPVCKDRWSPADLRTN | 1.85 |
| WEVQVSPTCPVCKDRNSPADLRTN | 1.84 |
| WEVQVSPTCPVCKDRGSPADLRTN | 2.15 |
| WEVQVSPTCPVCKDRKSPADLRTN | 2.8 |
| WEVQVSPTCPVCKDRTSPADLRTN | 2.79 |
| WEVQVSPTCPVCKDRISPADLRTN | 1.28 |
| WEVQVSPTCPVCKDRDSPADLRTN | 2.26 |
| WEVQVSPTCPVCKDRVSPADLRTN | 2.49 |
| WEVQVSPTCPVCKDRLSPADLRTN | 1.82 |
| WEVQVSPTCPVCKDRESPADLRTN | 2.78 |
| WEVQVSPTCPVCKDRYSPADLRTN | 2.08 |
| WEVQVSPTCPVCKDRCSPADLRTN | 1.41 |

| Variant | protein stability index |
| --- | --- |
| WEVQVSPTCPVCKDRQSPADLRTN | 2.96 |
| WEVQVSPTCPVCKDRASPADLGTN | 2.03 |
| WEVQVSPTCPVCKDRASPADLHTN | 2.54 |
| WEVQVSPTCPVCKDRASPADLCTN | 2.91 |
| WEVQVSPTCPVCKDRASPADLYTN | 2.49 |
| WEVQVSPTCPVCKDRASPADLLTN | 2.45 |
| WEVQVSPTCPVCKDRASPADLITN | 2.7 |
| WEVQVSPTCPVCKDRASPADLSTN | 2.91 |
| WEVQVSPTCPVCKDRASPADLKTN | 3.34 |
| WEVQVSPTCPVCKDRASPADLPTN | 3.74 |
| WEVQVSPTCPVCKDRASPADLETN | 4.1 |
| WEVQVSPTCPVCKDRASPADLQTN | 3.33 |
| WEVQVSPTCPVCKDRASPADLFTN | 2.22 |
| WEVQVSPTCPVCKDRASPADLTTN | 2.91 |
| WEVQVSPTCPVCKDRASPADLDTN | 3.8 |
| WEVQVSPTCPVCKDRASPADLNTN | 2.75 |
| WEVQVSPTCPVCKDRASPADLVTN | 3.75 |
| WEVQVSPTCPVCKDRASPAPLRTN | 1.85 |
| WEVQVSPTCPVCKDRASPAILRTN | 1.47 |
| WEVQVSPTCPVCKDRASPAYLRTN | 1.18 |
| WEVQVSPTCPVCKDRASPAELRTN | 2.95 |
| WEVQVSPTCPVCKDRASPAALRTN | 2.02 |
| WEVQVSPTCPVCKDRASPANLRTN | 2.2 |
| WEVQVSPTCPVCKDRASPACLRTN | 1.91 |
| WEVQVSPTCPVCKDRASPAHLRTN | 1.66 |

| Variant | protein stability index |
| --- | --- |
| WEVQVSPTCPVCKDRASPASLRTN | 1.68 |
| WEVQVSPTCPVCKDRASPAVLRTN | 1.97 |
| WEVQVSPTCPVCKDRASPAGLRTN | 1.85 |
| WEVQVSPTCPVCKDRASPALLRTN | 2.15 |
| WEVQVSPTCPVCKDRASPAMLRTN | 1.71 |
| WEVQVSPTCPVCKDRASPAKLRTN | 2.08 |
| WEVQVSPTCPVCKDRASPFDLRTN | 2.99 |
| WEVQVSPTCPVCKDRASPKDLRTN | 2.96 |
| WEVQVSPTCPVCKDRASPHDLRTN | 2.24 |
| WEVQVSPTCPVCKDRASPCDLRTN | 2.31 |
| WEVQVSPTCPVCKDRASPQDLRTN | 2.31 |
| WEVQVSPTCPVCKDRASPPDLRTN | 2.02 |
| WEVQVSPTCPVCKDRASPNDLRTN | 1.91 |
| WEVQVSPTCPVCKDRASPLDLRTN | 2.12 |
| WEVQVSPTCPVCKDRASPYDLRTN | 1.77 |
| WEVQVSPTCPVCKDRASPGDLRTN | 2.24 |
| WEVQVSPTCPVCKDRASPMDLRTN | 2.42 |
| WEVQVSPTCPVCKDRASPEDLRTN | 3.35 |
| WEVQVSPTCPVCKDRASPDDLRTN | 3.38 |
| WEVQVSPTCPVCKDRASPRDLRTN | 1.54 |
| WEVQVSPTCPVCKDRASPWDLRTN | 2.3 |
| WEVQVSPTCPVCKDRASPTDLRTN | 1.75 |
| WEVQVSPTCPVCKDRASPIDLRTN | 2.05 |
| WEVQVSPTCPVCKDRASPSDLRTN | 1.78 |
